Here are results for 27 molecules from patent publication US20260193293A1, “PEPTIDES CAPABLE OF INHIBITING PROTEIN-PROTEIN INTERACTIONS AT GABAB1A SUBUNIT AND USES THEREOF” (UNIVERSITY OF COPENHAGEN, priority 2022, published 2026).

Where “and” joins values, the source holds several entries; their conditions need not be identical. Identical values can stand only once. Starred links: 1 amine or outer side, 2 acyl side, 3 side chain; linkers in the order of their positions; H or OH if unused. Non-standard residues stand in square brackets, D forms with d. Obtyr = O-benzyl-L-tyrosine, O=C([C@H](Cc1ccc(OCc2ccccc2)cc1)N[*:1])[*:2]; Oetyr = O-ethyl-L-tyrosine, CCOc1ccc(C[C@H](N[*:1])C(=O)[*:2])cc1; 2Nal = N[C@@H](Cc1ccc2ccccc2c1)C(=O)O; Sar = CNCC(=O)O

Assay [1] addresses Sushi domains (SD1/2) protein of the GABAB1a (GB1a) subunit, recombinant. Kind of assay: FP competition.
For assay [2] the target is unchanged. Nature of the assay: FP competition. This is another data set of the same source.
The target is the same in assay [3]. Kind of assay: FP inhibition.
The target is the same in assay [4]. Nature of the assay: FP competition with AJAP-1probe.
Assay [5] shares this target. Nature of the assay: FP competition. This is another data set of the same source.
Assay [6] shares this target. Kind of assay: FP inhibition, six-point, crude peptide of the solution array.
The target is the same in assay [7]. Nature of the assay: FP competition; end of the range assigned from the Ki values of Table 2.
Assay [8] shares this target. Kind of assay: FP competition, N-methylation scan.
Assay [9] addresses Sushi domains (SD1/2) protein of GABAB1a (GB1a). Nature of the assay: FP competition vs TAMRA AJAP-1probe.

Chain of Sushi domains (SD1/2) protein of the GABAB1a (GB1a) subunit, recombinant (Q9Z0U4 29-158): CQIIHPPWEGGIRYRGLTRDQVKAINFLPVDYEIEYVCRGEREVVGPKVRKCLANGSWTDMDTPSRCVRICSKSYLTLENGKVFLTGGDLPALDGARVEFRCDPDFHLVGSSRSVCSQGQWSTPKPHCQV
Chain of Sushi domains (SD1/2) protein of GABAB1a (GB1a) (Q9Z0U4 29-158): as above

Ac-EDDSWIWWGPTGDED-NH2 [peptide 27 (Ac-…-NH2)]: the fold better affinity than 9 in assay [1] was determined as 3.8 fold. In assay [2], the Ki came to 16 nM.

B1: R4-20 (Ac-RRRREDDD(2Nala)…-NH2) (peptide)
peptide: Ac-RRRREDDD[2Nal]IDWYDSDDD-NH2
SMILES: CC[C@H](C)[C@H](NC(=O)[C@H](Cc1ccc2ccccc2c1)NC(=O)[C@H](CC(=O)O)NC(=O)[C@H](CC(=O)O)NC(=O)[C@H](CC(=O)O)NC(=O)[C@H](CCC(=O)O)NC(=O)[C@H](CCCNC(=N)N)NC(=O)[C@H](CCCNC(=N)N)NC(=O)[C@H](CCCNC(=N)N)NC(=O)[C@H](CCCNC(=N)N)NC(C)=O)C(=O)N[C@@H](CC(=O)O)C(=O)N[C@@H](Cc1c[nH]c2ccccc12)C(=O)N[C@@H](Cc1ccc(O)cc1)C(=O)N[C@@H](CC(=O)O)C(=O)N[C@@H](CO)C(=O)N[C@@H](CC(=O)O)C(=O)N[C@@H](CC(=O)O)C(=O)N[C@@H](CC(=O)O)C(N)=O
For the molecule B1, the Ki in assay [1] was 12 nM. The fold higher affinity than 4R-16 in assay [3] is 2 fold. In the case of Ac-TETEFIAWGPTGDED-NH2 [peptide 15 (Ac-…-NH2)], the Ki in assay [4] was determined as 23 nM; in assay [1], 26 nM. Turning to Ac-PWAIVWGPTVSREDG-NH2 [peptide 14 (…)], the inhibition constant Ki in assay [4] was 465 nM.

Turning to Ac-EDDSDVWWGPTGDED-NH2 [hybrid peptide X (Ac-…-NH2)], the fold higher affinity than APPWT in assay [1] is 10 fold. The inhibition constant (Ki) in assay [2] was 62 nM.

As to Ac-PWAIVWGPTVSRED-NH2 [PIANPWT (Ac-…-NH2)], the Ki in assay [5] came to 476 nM; in assay [1], 762 nM. Take Ac-SADAEEDDSDVWWGG-NH2 [peptide 12 (…)]: in assay [4], the Ki was determined as 1300 nM. Same read-out and setting: to Ac-WAIVWGPTVSREDGG-NH2 belongs 1350 nM. As for Ac-EEDDSDVWWGGADTDYAD-NH2 [Peptide 36 (Ac-…-NH2)], the Ki in assay [4] was 244 nM; in assay [1] it was 244 nM and 233 nM.

B2: peptide 21 (Ac-EDDD(2Nala)…-NH2) (peptide)
peptide: Ac-EDDD[2Nal]IDWGPTSDDD-NH2
SMILES: CC[C@H](C)[C@H](NC(=O)[C@H](Cc1ccc2ccccc2c1)NC(=O)[C@H](CC(=O)O)NC(=O)[C@H](CC(=O)O)NC(=O)[C@H](CC(=O)O)NC(=O)[C@H](CCC(=O)O)NC(C)=O)C(=O)N[C@@H](CC(=O)O)C(=O)N[C@@H](Cc1c[nH]c2ccccc12)C(=O)NCC(=O)N1CCC[C@H]1C(=O)N[C@H](C(=O)N[C@@H](CO)C(=O)N[C@@H](CC(=O)O)C(=O)N[C@@H](CC(=O)O)C(=O)N[C@@H](CC(=O)O)C(N)=O)[C@@H](C)O
Regarding B2, the inhibition constant Ki in assay [2] came out at 5.3 nM.

As for Ac-EDDSDVWWGGADTD-NH2 [APPWT (Ac-…-NH2)], the Ki in [2] amounted to 557 nM; in [6], 635 nM. Take Ac-ADAEEDDSDVWWGGA-NH2: the Ki in assay [4] came to 1530 nM. In the case of Ac-ETEFIAWGPTGDED-NH2 [AJAP-1WT (Ac-…-NH2)], the Ki in assay [1] is 32 nM; in [2], 31 nM. On to Ac-AIVWGPTVSREDGGD-NH2, for which the Ki in [4] worked out at 637 nM.

B3: peptide 32 (Ac-EDDD(Oetyr)…-NH2) (peptide)
peptide: Ac-EDDD[Oetyr]IDWYDSDDD-NH2
SMILES: CCOc1ccc(C[C@H](NC(=O)[C@H](CC(=O)O)NC(=O)[C@H](CC(=O)O)NC(=O)[C@H](CC(=O)O)NC(=O)[C@H](CCC(=O)O)NC(C)=O)C(=O)N[C@H](C(=O)N[C@@H](CC(=O)O)C(=O)N[C@@H](Cc2c[nH]c3ccccc23)C(=O)N[C@@H](Cc2ccc(O)cc2)C(=O)N[C@@H](CC(=O)O)C(=O)N[C@@H](CO)C(=O)N[C@@H](CC(=O)O)C(=O)N[C@@H](CC(=O)O)C(=O)N[C@@H](CC(=O)O)C(N)=O)[C@@H](C)CC)cc1
For the molecule B3, in assay [2], the Ki came to 5.3 nM.

As for Ac-EDDSDVWWYGADTD-NH2 [… (APPWT mutant G211Y)], the Ki in assay [1] came out at 108 nM; in [6], 167 nM. Consider Ac-RRRRRRRREDDDWIDWYDSDDD-NH2 [R8-16 (Ac-…-NH2)], for which, in assay [7], the fold loss of affinity against the untagged peptide is 12 to 33 fold. Further, the Ki in assay [1] stood at 107 nM. Ac-EDDSDVWWGGADTDY-NH2 [peptide 13 (…)]: in assay [4], the Ki worked out at 581 nM.

As for Ac-EDDSWVWWGGADTD-NH2 [… (APPWT mutant D207W)], the values for the inhibition constant Ki in assay [1] and in assay [6] were 100 nM and 78 nM, respectively.

B4: peptide 34 (Ac-EDDD(Oetyr)…-NH2) (peptide)
peptide: Ac-EDDD[Oetyr]IDWGPTSDDD-NH2
SMILES: CCOc1ccc(C[C@H](NC(=O)[C@H](CC(=O)O)NC(=O)[C@H](CC(=O)O)NC(=O)[C@H](CC(=O)O)NC(=O)[C@H](CCC(=O)O)NC(C)=O)C(=O)N[C@H](C(=O)N[C@@H](CC(=O)O)C(=O)N[C@@H](Cc2c[nH]c3ccccc23)C(=O)NCC(=O)N2CCC[C@H]2C(=O)N[C@H](C(=O)N[C@@H](CO)C(=O)N[C@@H](CC(=O)O)C(=O)N[C@@H](CC(=O)O)C(=O)N[C@@H](CC(=O)O)C(N)=O)[C@@H](C)O)[C@@H](C)CC)cc1
Take B4: the Ki in assay [2] turned out to be 6.5 nM. With Ac-TTETEFIAWGPTGDE-NH2, in assay [4], the Ki is 73 nM. The same measure, in the same setting: the same measure for Ac-DDSDVWWGGADTDYADG-NH2: 687 nM.

B5: …(N-Me-G)ADTD (peptide)
peptide: Ac-EDDSDVWWG[Sar]ADTD-NH2
SMILES: CC(=O)N[C@@H](CCC(=O)O)C(=O)N[C@@H](CC(=O)O)C(=O)N[C@@H](CC(=O)O)C(=O)N[C@@H](CO)C(=O)N[C@@H](CC(=O)O)C(=O)N[C@H](C(=O)N[C@@H](Cc1c[nH]c2ccccc12)C(=O)N[C@@H](Cc1c[nH]c2ccccc12)C(=O)NCC(=O)N(C)CC(=O)N[C@@H](C)C(=O)N[C@@H](CC(=O)O)C(=O)N[C@H](C(=O)N[C@@H](CC(=O)O)C(N)=O)[C@@H](C)O)C(C)C
As for B5, the fold increased affinity against APPWT in assay [8] is 3 fold. Moreover, the Ki in assay [1] and in [9] was 161 nM each time. As for Ac-DDSDVWWGG-NH2, the inhibition constant Ki in [4] came to 2630 nM.

B6: peptide 33 (Ac-EDDD(Obtyr)…-NH2) (peptide)
peptide: Ac-EDDD[Obtyr]IDWYDSDDD-NH2
SMILES: CC[C@H](C)[C@H](NC(=O)[C@H](Cc1ccc(OCc2ccccc2)cc1)NC(=O)[C@H](CC(=O)O)NC(=O)[C@H](CC(=O)O)NC(=O)[C@H](CC(=O)O)NC(=O)[C@H](CCC(=O)O)NC(C)=O)C(=O)N[C@@H](CC(=O)O)C(=O)N[C@@H](Cc1c[nH]c2ccccc12)C(=O)N[C@@H](Cc1ccc(O)cc1)C(=O)N[C@@H](CC(=O)O)C(=O)N[C@@H](CO)C(=O)N[C@@H](CC(=O)O)C(=O)N[C@@H](CC(=O)O)C(=O)N[C@@H](CC(=O)O)C(N)=O
On to B6, for which the Ki in assay [2] worked out at 9.3 nM.

B7: peptide 35 (Ac-EDDD(Obtyr)…-NH2) (peptide)
peptide: Ac-EDDD[Obtyr]IDWGPTSDDD-NH2
SMILES: CC[C@H](C)[C@H](NC(=O)[C@H](Cc1ccc(OCc2ccccc2)cc1)NC(=O)[C@H](CC(=O)O)NC(=O)[C@H](CC(=O)O)NC(=O)[C@H](CC(=O)O)NC(=O)[C@H](CCC(=O)O)NC(C)=O)C(=O)N[C@@H](CC(=O)O)C(=O)N[C@@H](Cc1c[nH]c2ccccc12)C(=O)NCC(=O)N1CCC[C@H]1C(=O)N[C@H](C(=O)N[C@@H](CO)C(=O)N[C@@H](CC(=O)O)C(=O)N[C@@H](CC(=O)O)C(=O)N[C@@H](CC(=O)O)C(N)=O)[C@@H](C)O
In the case of B7, in assay [2], the Ki stood at 9.5 nM. For the molecule Ac-DSADAEEDDSDVWWG-NH2 [peptide 11 (…)], in assay [4], the Ki came to 5030 nM.
